T1: PUF4 RNA-binding domain (Saccharomyces cerevisiae, UniProt P25339 537-888)
T1 sequence: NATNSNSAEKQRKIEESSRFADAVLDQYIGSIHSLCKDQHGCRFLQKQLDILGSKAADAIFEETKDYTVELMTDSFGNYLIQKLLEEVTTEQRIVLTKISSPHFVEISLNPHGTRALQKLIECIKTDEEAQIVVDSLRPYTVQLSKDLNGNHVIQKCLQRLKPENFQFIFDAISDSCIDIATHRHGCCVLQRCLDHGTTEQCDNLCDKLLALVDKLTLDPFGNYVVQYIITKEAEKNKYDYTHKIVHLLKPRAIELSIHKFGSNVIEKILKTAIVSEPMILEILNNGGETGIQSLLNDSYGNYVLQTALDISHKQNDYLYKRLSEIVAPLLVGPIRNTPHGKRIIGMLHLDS

B1: Id_ii_S3_P5E.3_K5.2_C5.2_[T-1C]_H5.2_A5.1_F5.1_T5.2_[T11A]_[A12C] (ssRNA)
RNA: ACAAACCCUAUAUUAUUAACACAAAC
B2: Id_ii_S3_P5E.3_K5.2_C5.2_[T-1G]_H5.2_A5.1_F5.1_T5.2_[T11G] (ssRNA)
RNA: ACAAACCGUAUAUUAUUAGAACAAAC
B3: Id_ii_S3_P4E.4_K4.3_C4.2_[T-1A]_H4.3_A4.1_F4.1_T4.2_[G10A] (ssRNA)
RNA: ACAAACCAACACUAUUAAUACAAAC
B4: Id_ii_S3_P5E.3_K5.2_C5.2_[C-2T]_[T-1C]_H5.2_A5.1_F5.1_T5.2_[T11A]_[A12G] (ssRNA)
RNA: ACAAACUCUAUAUUAUUAAGACAAAC
B5: Id_ii_S3_P5E.3_K5.2_C5.2_[C-2A]_[T-1G]_H5.2_A5.1_F5.1_T5.2_[T11G] (ssRNA)
RNA: ACAAACAGUAUAUUAUUAGAACAAAC
B6: Ib_S1_P5E.1_K5.1_C5.1_H5.1_[T1C]_[G2A]_A5.1_F5.1_T5.1 (ssRNA)
RNA: UCUCUUCAUAUUAUUAUCUCUU
B7: Id_ii_S3_P5E.3_K5.2_C5.2_[C-2A]_[T-1C]_H5.2_A5.1_F5.1_T5.2_[A12C] (ssRNA)
RNA: ACAAACACUAUAUUAUUAUCACAAAC
B8: Id_ii_S3_P5E.3_K5.2_C5.2_[T-1C]_H5.2_A5.1_F5.1_T5.2_[T11A]_[A12T] (ssRNA)
RNA: ACAAACCCUAUAUUAUUAAUACAAAC
B9: Id_ii_S3_P4E.4_K4.3_C4.2_H4.3_A4.1_F4.1_T4.2_[G10A]_[T11C] (ssRNA)
RNA: ACAAACCUACACUAUUAACACAAAC
B10: Id_ii_S3_P4E.4_K4.3_C4.2_[T-1C]_H4.3_A4.1_F4.1_T4.2_[G10A]_[T11A] (ssRNA)
RNA: ACAAACCCACACUAUUAAAACAAAC
B11: Ib_S1_P5E.1_K5.1_C5.1_H5.1_[T1C]_[T3A]_A5.1_F5.1_T5.1 (ssRNA)
RNA: UCUCUUCGAAUUAUUAUCUCUU
B12: Id_ii_S3_P4E.4_K4.3_C4.2_[T-1A]_H4.3_A4.1_F4.1_T4.2_[G10C] (ssRNA)
RNA: ACAAACCAACACUAUUACUACAAAC
B13: Id_ii_S3_P5E.3_K5.2_C5.2_[C-2T]_[T-1A]_H5.2_A5.1_F5.1_T5.2_[A12T] (ssRNA)
RNA: ACAAACUAUAUAUUAUUAUUACAAAC
B14: Id_ii_S3_P5E.3_K5.2_C5.2_[C-2A]_[T-1A]_H5.2_A5.1_F5.1_T5.2_[T11A]_[A12C] (ssRNA)
RNA: ACAAACAAUAUAUUAUUAACACAAAC
B15: Ia_S1_P5E.1_K5.1_C5.1_H5.1_A5.1_[T5A]_F5.1_T5.1 (ssRNA)
RNA: UCUCUUUGUAAUAUUAUCUCUU
B16: Id_ii_S3_P4E.4_K4.3_C4.2_[T-1A]_H4.3_A4.1_F4.1_T4.2_[G10A]_[T11G] (ssRNA)
RNA: ACAAACCAACACUAUUAAGACAAAC
B17: Id_ii_S3_P5E.3_K5.2_C5.2_[C-2A]_[T-1A]_H5.2_A5.1_F5.1_T5.2_[T11G]_[A12T] (ssRNA)
RNA: ACAAACAAUAUAUUAUUAGUACAAAC
B18: Id_ii_S3_P5E.3_K5.2_C5.2_[C-2G]_[T-1A]_H5.2_A5.1_F5.1_T5.2_[T11G]_[A12C] (ssRNA)
RNA: ACAAACGAUAUAUUAUUAGCACAAAC
B19: Id_ii_S3_P4E.4_K4.3_C4.2_[T-1C]_H4.3_A4.1_F4.1_T4.2_[G10A]_[T11C] (ssRNA)
RNA: ACAAACCCACACUAUUAACACAAAC
B20: Ib_S1_P5E.1_K5.1_C5.1_H5.1_[T1G]_[G2T]_A5.1_F5.1_T5.1 (ssRNA)
RNA: UCUCUUGUUAUUAUUAUCUCUU
B21: Id_ii_S3_P4E.4_K4.3_C4.2_[T-1C]_H4.3_A4.1_F4.1_T4.2_[G10A] (ssRNA)
RNA: ACAAACCCACACUAUUAAUACAAAC
B22: Id_ii_S3_P4E.4_K4.3_C4.2_[T-1A]_H4.3_A4.1_F4.1_T4.2_[T11C] (ssRNA)
RNA: ACAAACCAACACUAUUAGCACAAAC
B23: Id_ii_S3_P4E.4_K4.3_C4.2_[T-1C]_H4.3_A4.1_F4.1_T4.2_[G10C]_[T11C] (ssRNA)
RNA: ACAAACCCACACUAUUACCACAAAC
B24: Id_ii_S3_P5E.3_K5.2_C5.2_[C-2G]_[T-1C]_H5.2_A5.1_F5.1_T5.2_[T11A]_[A12T] (ssRNA)
RNA: ACAAACGCUAUAUUAUUAAUACAAAC
B25: Id_ii_S3_P5E.3_K5.2_C5.2_[T-1C]_H5.2_A5.1_F5.1_T5.2_[T11C]_[A12C] (ssRNA)
RNA: ACAAACCCUAUAUUAUUACCACAAAC
B26: Id_ii_S3_P5E.3_K5.2_C5.2_[T-1C]_H5.2_A5.1_F5.1_T5.2_[T11A] (ssRNA)
RNA: ACAAACCCUAUAUUAUUAAAACAAAC
B27: Id_ii_S3_P5E.3_K5.2_C5.2_[C-2A]_H5.2_A5.1_F5.1_T5.2_[T11G]_[A12G] (ssRNA)
RNA: ACAAACAUUAUAUUAUUAGGACAAAC
B28: Id_ii_S3_P5E.3_K5.2_C5.2_[C-2G]_[T-1G]_H5.2_A5.1_F5.1_T5.2_[T11G]_[A12G] (ssRNA)
RNA: ACAAACGGUAUAUUAUUAGGACAAAC
B29: Id_ii_S3_P5E.3_K5.2_C5.2_[C-2A]_H5.2_A5.1_F5.1_T5.2_[T11C] (ssRNA)
RNA: ACAAACAUUAUAUUAUUACAACAAAC
B30: Id_ii_S3_P5E.3_K5.2_C5.2_[C-2T]_H5.2_A5.1_F5.1_T5.2_[T11C]_[A12G] (ssRNA)
RNA: ACAAACUUUAUAUUAUUACGACAAAC
B31: Id_ii_S3_P5E.3_K5.2_C5.2_[C-2A]_[T-1G]_H5.2_A5.1_F5.1_T5.2_[T11A]_[A12G] (ssRNA)
RNA: ACAAACAGUAUAUUAUUAAGACAAAC

Each binder was assayed against T1, PUF4 RNA-binding domain (assay: Mg; RNA-MaP; 20 mM Na-HEPES pH 7.4, 30 mM KOAc, 0.75 mM MgCl2, 0.1% Tween-20, 5% glycerol, 0.1 mg/mL BSA, 2 mM DTT; 25 C; 0.0125-409.6 nM protein). Details: tags: N-His6-TEV cleaved; C-SNAP kept, Cy3B-labelled; label: tethered on chip by stalled RNA polymerase.

Row | Binder | Kd [nM]
1 | B1 | 452
2 | B2 | 15.8
3 | B3 | > 2300
4 | B4 | 684
5 | B5 | 35.5
6 | B6 | > 2300
7 | B7 | 370
8 | B8 | 464
9 | B9 | > 2300
10 | B10 | > 2300
11 | B11 | > 2300
12 | B12 | > 2300
13 | B13 | 19.2
14 | B14 | 535
15 | B15 | 6.33
16 | B16 | > 2300

Row | Binder | Kd [nM]
17 | B17 | 118
18 | B18 | 164
19 | B19 | > 2300
20 | B20 | 56.7
21 | B21 | > 2300
22 | B22 | > 2300
23 | B23 | > 2300
24 | B24 | 480
25 | B25 | 448
26 | B26 | 673
27 | B27 | 94.3
28 | B28 | 28.9
29 | B29 | 464
30 | B30 | 381
31 | B31 | 36.4

Source: article PMC9352680, “A comprehensive thermodynamic model for RNA binding by the Saccharomyces cerevisiae Pumilio protein PUF4”
